From paper PMC7513463 (Nature, 2020)
Where two headings read alike, the source gives them in different places.

B1: PA0618 (Tri1) triplex protein of pyocin R2 (natural protein, Pseudomonas aeruginosa PAO1, UniProt G3XCX5 1-295, looked up)
chain: MIIDLSQLPEPEVIENLDFETIYQELLGDFREAMAGEWTAEVESDPVLKLLQLAAYRELLLRARINDAARAVMLAYASGADLDQIGAGFNVQRLLIRPAQPEAVPPVEAQYESDKSLRNRIQLAFEQLSVAGPRNAYIAHALGADGRVADASATSPAPCEVLISVLGVEGNGQAPEAVLQAVRLALNAEDVRPVADRVTVRSAGIVPYQVKAQLYLFPGPEAELIRAAAEASLRDYISAQRRLGRDIRRSALFATLHVEGVQRVELQEPAADVVLDETQAAYCTGYAITLGGVDE
B2: PA0617 sheath initiator protein of pyocin R2 (natural protein, Pseudomonas aeruginosa PAO1, UniProt G3XD42 1-108, looked up)
chain: MIGMDRRSGLPLSGLAHLKQSVEDILTTPLGSRRMRPEYGSKLRRMVDMPVSEGWKSAVQAEVARSLGRWEPRIGLSAVRVVAVVDGRVDLLLSGVFEGENINMEVSA
B3: PA0615 collar protein of pyocin R2 (natural protein, Pseudomonas aeruginosa PAO1, UniProt G3XD82 1-171, looked up)
chain: MPEQAVTLEALYAAIEQVLRERLPEAQLIGFWPGVPENTPAVSLEIAELLPERDPGTGESALLCRLQARIMVPPGADRQAVSIACGIVRTLREQTWNLSLQPARFVRSAVDGSREELKSLRVWLVEWTQSLRLGDPEWAWEDQPPGSLMLGFDPQTGPGHEPDYFAPEALA
B4: PA0619 (Tri2) triplex protein of pyocin R2 (natural protein, Pseudomonas aeruginosa PAO1, UniProt G3XD92 1-177, looked up)
chain: MSSRLLPPNRSSLERSLGDVLPAELPVPLRELHDPARCEAALLPYLAWTRSVDRWDPDWSDEAKRNAVATSFVLHQRKGTLTALRQVVEPIGALSEVTEWWQRSPTGVPGTFEITVDVSDRGIDEGTVLELERLLDDVRPVSRHLTRLDLRITPVIRSRHGLAVTDGDTLEIFPWKQ
B5: PA0622 sheath protein of pyocin R2 (natural protein, Pseudomonas aeruginosa PAO1, UniProt G3XD39 1-386, looked up)
chain: MSFFHGVTVTNVDIGARTIALPASSVIGLCDVFTPGAQASAKPNVPVLLTSKKDAAAAFGIGSSIYLACEAIYNRAQAVIVAVGVETAETPEAQASAVIGGISAAGERTGLQALLDGKSRFNAQPRLLVAPGHSAQQAVATAMDGLAEKLRAIAILDGPNSTDEAAVAYAKNFGSKRLFMVDPGVQVWDSATNAARNAPASAYAAGLFAWTDAEYGFWSSPSNKEIKGVTGTSRPVEFLDGDETCRANLLNNANIATIIRDDGYRLWGNRTLSSDSKWAFVTRVRTMDLVMDAILAGHKWAVDRGITKTYVKDVTEGLRAFMRDLKNQGAVINFEVYADPDLNSASQLAQGKVYWNIRFTDVPPAENPNFRVEVTDQWLTEVLDVA
B6: PA0628 hub protein of pyocin R2 (natural protein, Pseudomonas aeruginosa PAO1, UniProt G3XCU8 1-329, looked up)
chain: MQPSFRIVADGTDVTQRLNDRLLKLTLLDKPGMESDSLTLRIDDRDGQVALPRRGAVLEVHLGYAGEPLMRMGRFTVDTLQWAGPPDCLTVTAKAGDMRGSGKTIRSGGWEGTTLAQVCRDVGARNGWRVECPLQVAIARVDQVNESDYHFVTRLARQYDCTAKLAEGMLMVLPRQSGQSATGRRIEPLVLGRADVGSFDVTFDDRSLMRTVKTRYQLPGSGEVKSVELKNPKAPATAMGEHVDRHLYTSRGEAEQAAKARLASFSRSSASVRLELPGRGDLFAERSLLLQGFKAGIDGEFLIDSVEHTYSSSGWTTVVQCNGGRGGKG
B7: PA0616 central spike protein of pyocin R2 (in the native particle) (natural protein)
chain: MSYVSAEHDRMLAAMILPCVVVAVDLAAARVRVRSGDWTSGWLRWHSLAAGKVRHWRAPSIGEQGVLLSPSGGVSMGTFIPGLYGDAGTAPDNSASSETWRFDDGASLSYDWAAHRYRVELPSGTVEVRVGASEVRVSDGAVSLKAPKISLEGPVEIAGTLTVSGDILGGGSIIDTAGNSNHHTH
B8: PA0616 central spike protein, full length, recombinant (natural protein)
chain: B7 chain
B9: PA0626 ripcord protein of pyocin R2 (natural protein, Pseudomonas aeruginosa PAO1, UniProt G3XD65 1-290, looked up)
chain: MAYLEQLQAGLRYLGRAGESGRKSLDKVVAPVNGAISEIRGAAAELENLPGVSPEMAARLQRAMRGIGQAQGKVNRVVSTYDRASRALLGIDERLDALKVQVNSAAQAVGKVAGDISPTLAGVLPSWLLAPSATPPSEAAASLPHLLVLQPLTANAQPFYFNLNTAAFDALQRNSAYNWSGQVRLGRRPALQSVGMGEESILLKGAVFPLRRQVGNQEKVVGLEQLEALRRLAERREPLILSSGYGEVQMGLWCLVRISENQSALLGNGAPRKQTFDLEFKRYGDDLPNR
B10: PA0623 tube protein of pyocin R2 (natural protein, Pseudomonas aeruginosa PAO1, UniProt Q9I5S9 1-167, looked up)
chain: MIPQTLTNTNLFIDGVSFAGDVPSLTLPKLAVKTEQYRAGGMDAPVSIDMGLEAMEAKFSTNGARREALNFFGLADQSAFNGVFRGSFKGQKGASVPVVATLRGLLKEVDPGDWKAGEKAEFKYAVAVSYYKLEVDGREVYEIDPVNGVRAINGVDQLAGMRNDLGL

Assays:
[1] = target: B4; test: cryo-EM structure
cryo-EM structure [2] = target: the molecule itself; test: cryo-EM structure
[3] = target: B5; test: cryo-EM structure
[4] = target: B5; test: cryo-EM structure; remark: listed apart in the source
[5] = target: B1; test: cryo-EM structure
cryo-EM structure [6] = target: the molecule itself; test: cryo-EM structure; remark: listed apart in the source
crystal structure = target: the molecule itself; test: crystal structure
[7] = target: B6; test: cryo-EM structure

Question: B1 was tested. Which “stoichiometry N” value [1] did it give?
Answer: Its value is 2 PA0618 per PA0619.

Question: What about the “stoichiometry N” value (cryo-EM structure [2]) of the same binder?
Answer: The value was 2.

Question: Does B2 bind [3]?
Answer: Result: binds

Question: B3 was tested. Which “stoichiometry N” value (cryo-EM structure [2]) did it give?
Answer: Its value is 6.

Question: Does B3 bind [4]?
Answer: Result: binds

Question: Does B4 bind [5]?
Answer: Result: binds

Question: Does B5 bind (cryo-EM structure [6])?
Answer: Result: binds

Question: With B6 as the binder, how does the “stoichiometry N” value (cryo-EM structure [2]) read?
Answer: Its value is 3.

Question: With B7 as the binder, how does the “stoichiometry N” value (cryo-EM structure [2]) read?
Answer: The value was 3.

Question: For B8, which “stoichiometry N” value (crystal structure) is on record?
Answer: The value was 3.

Question: What does the source list for B9?
Answer: binding result [7]: binds; stoichiometry N (cryo-EM structure [2]): 6

Question: How did the “stoichiometry N” value (cryo-EM structure [2]) turn out when B10 was run?
Answer: The value was 6.
